# Source: US11267871B2, “Topical application for an anti-HSV antibody” (priority 2014, dated 2022)
# B1: mAb hu2c: humanized derivative of murine mAb 2c recognizing glycoprotein B of HSV-1/2; CDRs grafted into DP28/DPK13, human γ1 and κ constant chains (antibody, V domains shown)
# VH: QVTLKESGPALVKPTQTLTLTCTFSGFSLSTSGMSVGWIRQPPGKALEWLAHIWWNNDKYYKPALKSRLTISKDTSKNQVVLTMTNMDPVDTATYYCARIYYGYRPYAMDYWGQGTLVTVSS
# VL: DIVMTQTPLSLPVTPGEPASISCRSSQSIVHSNGNTYLEWYLQKPGQSPQLLIYKVSNRFSGVPDRFSGSGSGTDFTLKISRVEAEDVGVYYCFQGSHVPWSFGQGTKVEIKR
# modifications: VH of the humanized mAb hu2c antibody; VL of the humanized mAb hu2c antibody
# notes: humanized derivative of murine mAb 2c recognizing glycoprotein B of HSV-1/2; CDRs grafted into DP28/DPK13, human γ1 and κ constant chains
# Tests used:
# HSV-2 G = assay: Topical treatment of acute genital HSV-2 infection in immunodeficient mice (survival, clinical score); assay type: in vivo, mice (NOD.CB17-Prkdc^scid/NCrHsd); conditions: for mice with acute genital HSV-2 infection / local genital symptoms resolved at 48 h (number) / mice with acute genital HSV-2 infection / local genital symptoms resolved at 48 h (percent): 48 h after start of topical treatment, ACV 1 mg twice per day ongoing; for mice with acute genital HSV-2 infection / local genital symptoms resolved at 48 h (number) / mice with acute genital HSV-2 infection / local genital symptoms resolved at 48 h (percent) / mice in which HSV-2 lethal encephalitis was prevented: hu2c single 200 μg; for mice in which HSV-2 lethal encephalitis was prevented: topical, ACV 1 mg twice per day for 4 days
# Experimental: FIG. 1: compares the survival of immunodeficient mice with acute genital HSV-2 infection after topical treatment either with the humanized monoclonal antibody hu2c or acyclovir. Female mice (NOD.CB17-Prkdc^scid/NCrHsd) were treated with a long-acting progestin (Depo-Clinovir, Pharmacia) 7 days prior to viral challenge to increase susceptibility to HSV-2 infection and to eliminate differences caused by the estrous cycle. Anesthetized mice were vaginally challenged with a lethal dose of 5×10^5 PFU of HSV-2 G (20 μl). Mice displaying visible infection (perineal hair loss, reddening, swelling) were treated one day after viral challenge (A) once with 40 μl hu2c (5 mg/ml) (●) or 40 μl control IgG (5 mg/ml) (□) or (B) twice daily for 4 days with 40 μl ACV (25 mg/ml) (Δ) or 40 μl PBS (x). Drug solutions or PBS were applied topically to the outer genital epithelium. Mice were monitored for 36 days after viral inoculation. Mice displaying sever systemic signs and/or severe lesions/zoster were killed. Surviving mice were sacrificed at day 36. Test groups contained eight animals each, control groups contained five animals each. Kaplan-Meier survival curves were analyzed by log-rank (Mantel-Cox) test. Two-tailed significance tests were used to compare the significance level between two groups. All protocols were approved by the Animal Care and Use Committee.
# Mice displaying visible infection (perineal hair loss, reddening, swelling) one day after intravaginal challenge with a lethal dose of 5×10^5 PFU of HSV-2 G (20 μl) were treated (A & C) twice daily for 4 days with (A) 40 μl PBS or (C) 40 μl ACV (25 mg/ml), or treated (B & D) once at 24 h post infection with (B) 40 μl hu2c (5 mg/ml) or (D) 40 μl control IgG (5 mg/ml). Drug solutions or PBS were applied topically to the outer genital epithelium.
# Infected animals were observed daily and their clinical status was scored as follows: 0, lack of symptoms, no lesions; 1-2, redeness and/or swelling (erosion); 3, localized lesion <1 mm; 4-5, localized lesion 2-3 mm; 6-7 localized lesion 4-5 mm; 8-9, severe hyperemia, destruction of the epithelium and stroma with necrosis; 10, systemic signs, death. Animals with grading >8 were killed to prevent undue suffering. Test groups contained eight animals each, control groups contained five animals each. Arrows indicate time points of treatment.
# • The ability of the humanized monoclonal antibody hu2c to alter the clinical course of acute genital HSV-2 infection in immunodeficient mice following a single topical treatment with 200 μg mAb hu2c (5 mg/ml) was investigated. To infect 100% of mice as assessed by visible lesions and culture of vaginal lavage, a viral inoculum of 5×10^5 PFU of HSV-2 G was delivered to the vagina of anesthetized mice. • Although acute HSV-1 or HSV-2 infections result in a fatal outcome in 100% of mice with severe combined immunodeficiency when compared to 70-90% mortality in immunocompetent mice, the immunodeficient model has nevertheless been chosen to discriminate a possible clinical efficacy of the therapy from an elimination of the viral infection due to immune effector cells of the mouse (Minagawa et al., Arch Virol 103, 73-82 (1988); Nagafuchi et al., J Gen Virol 44, 715-723 (1979)). Within genital mucosa the expansion rates of HSV-2 are extremely rapid. At 24 h after viral challenge infected mice received topically at the infected area either twice per day for 4 days 1 mg acyclovir (ACV) (25 mg/ml) or 40 μl buffer (PBS) or a single treatment of 200 μg mAb hu2c (5 mg/ml) or 200 μg control mAb (5 mg/ml). Clinical efficacy of the HSV-specific mAb was compared to the irrelevant mAb (isotypcontrol), ACV and PBS treatment by means of Kaplan-Meier survival curves and daily assessment of the clinical status of the mucous membranes of the genital and anal area. […]
# [1] = system: recurrent herpes labialis; conditions: 5 times per day for 4 days, cited from earlier work
# [2] = system: oral herpes infection (HSV-1 or HSV-2, type not analyzed); assay: Topical application of humanized anti-HSV antibody in volunteers with acute recurrence of oral herpes (cold sores); assay type: in vivo, human
# Experimental: 1.2 Trial Description • Between 2010-2013, twelve healthy 30-59 year old volunteers (7 female, 5 male) with an acute recurrence of oral herpes infection (cold sores) were treated. Volunteers presented themselves when the onset of initial HSV symptoms (itching of the lips, burning or tingling near the lips or mouth area) occurred or had progressed to visible skin disorders on the outer lips. […] However, sometimes HSV-2 is spread to the mouth during oral sex, causing oral herpes. The type of HSV infection (HSV-1 or HSV-2) was not analyzed. • The antibody was packaged as sterile solutions either in PBS or PBS/ash créme (1:1) at concentrations of 0.7-1 mg/ml. Participants applied approx. 10 μl of the antibody topically once, once per day for two days or for a total of three times maximum.
# 2. Results • ZOVIRAX Cream had been evaluated in 2 double-blind, randomized, placebo (vehicle)-controlled trials (see Zovirax N-. Zovirax Prescribing Information. http://wwwaccessdatafdagov/drugsatfda_docs/label/2002/21478_zovirax_Ib|pdf#page=1&zoom=auto,0,792). • In the Zovirax studies, subjects were instructed to initiate treatment within 1 hour of noticing signs or symptoms and continue treatment for 4 days, with application of study medication 5 times per day. […] At time of treatment several small blisters were visible. For the antibody treated HSV infection a quick recovery was observed.
# [3] = 72 h after commencement of ACV treatment
# [4] = one volunteer, upper lip, antibody three times
molecule,measurement,setting,value
"Nc1nc(=O)c2ncn(COCCO)c2[nH]1 [ACV, 2-Amino-9-(2-hydroxyethoxymethyl)-3H-purin-6-on]",mice with acute genital HSV-2 infection / local genital symptoms resolved at 48 h (number),HSV-2 G,1 out of 8
same,mice with acute genital HSV-2 infection / local genital symptoms resolved at 48 h (percent),HSV-2 G,13%
same,mice with no local signs at 72 h (number),HSV-2 G; [3],5 out of 8
same,mice with no local signs at 72 h (percent),HSV-2 G; [3],63%
same,mice in which HSV-2 lethal encephalitis was prevented,HSV-2 G,1 out of 8
same,reduction of episode duration compared with placebo,[1],0.5 days
same,mean duration of the recurrent herpes labialis episode,[1]; placebo 5 days,4.5 days
B1,spread of the infected area upon treatment,[2]; all participants,did not spread
same,fast symptom and pain relief after application,"[2]; all participants, approx. 10 μl of 0.7-1 mg/ml, one to three applications",≤ 24 h
same,overall rates of clinical reactivation (participants' impression),"[2]; human, in vivo",tend to be reduced
same,occurrence of lesions,"[2]; one volunteer, upper lip",no lesions occurred
same,time to disappearance of blisters,[2]; [4],≤ 24 h
same,time until swelling subsided,[2]; [4],≤ 48 h
same,healing when treatment started at stage of visible external herpetic lesions,[2]; participants' report,rapid healing and disappearance of crusted areas
same,course of active blisters,[2]; participants' report or one volunteer with upper lip (antibody) and lower lip (Zovirax),regressed and did not turn into weeping blisters
same,time to elimination of the infection,"[2]; topical administration, acute infection of the tissue of the lips",≤ 24 h
same,mice with acute genital HSV-2 infection / local genital symptoms resolved at 48 h (number),HSV-2 G,7 out of 8
same,mice with acute genital HSV-2 infection / local genital symptoms resolved at 48 h (percent),HSV-2 G,88%
same,mice in which HSV-2 lethal encephalitis was prevented,HSV-2 G,1 out of 8
